In article doi:10.1101/768341:

Target: GST-TRAF6 (mouse) (UniProt P70196)
Test: SPR

Chain of UniProt P70196 (P70196 whole entry): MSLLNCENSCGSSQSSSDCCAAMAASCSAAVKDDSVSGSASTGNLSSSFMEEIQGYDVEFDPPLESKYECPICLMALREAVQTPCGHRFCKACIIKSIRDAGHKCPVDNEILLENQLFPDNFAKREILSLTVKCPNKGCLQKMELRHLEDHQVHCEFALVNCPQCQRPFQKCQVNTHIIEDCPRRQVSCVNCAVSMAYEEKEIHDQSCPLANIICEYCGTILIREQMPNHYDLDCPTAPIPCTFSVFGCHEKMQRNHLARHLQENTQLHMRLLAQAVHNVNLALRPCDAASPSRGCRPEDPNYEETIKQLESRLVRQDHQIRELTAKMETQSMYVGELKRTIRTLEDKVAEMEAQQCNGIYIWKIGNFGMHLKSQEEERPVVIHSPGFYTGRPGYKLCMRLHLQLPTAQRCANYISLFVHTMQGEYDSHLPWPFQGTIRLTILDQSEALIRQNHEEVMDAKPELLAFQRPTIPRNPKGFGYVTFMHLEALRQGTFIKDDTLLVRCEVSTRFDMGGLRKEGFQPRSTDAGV

“neuroplastin intracellular peptide containing the TRAF6 binding motif” gave a Kd of 88 µM and a stoichiometry N of 1.
